For data set [1], the target named is T1, TcAK (arginine kinase from Trypanosoma cruzi) (Trypanosoma cruzi, UniProt O96507).
T1 sequence (O96507 1-357): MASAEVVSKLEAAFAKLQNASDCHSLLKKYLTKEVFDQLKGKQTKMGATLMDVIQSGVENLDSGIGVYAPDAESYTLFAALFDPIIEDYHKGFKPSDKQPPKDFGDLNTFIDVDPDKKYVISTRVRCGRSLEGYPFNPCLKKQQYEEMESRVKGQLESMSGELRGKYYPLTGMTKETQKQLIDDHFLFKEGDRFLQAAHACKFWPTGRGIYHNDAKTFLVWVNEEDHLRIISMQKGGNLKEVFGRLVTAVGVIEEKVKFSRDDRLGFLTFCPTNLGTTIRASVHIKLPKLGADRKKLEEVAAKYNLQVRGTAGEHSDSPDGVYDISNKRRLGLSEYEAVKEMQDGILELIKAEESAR
Briefly: coupled pyruvate kinase / lactate dehydrogenase assay, NADH at […] nm. The data set is classed as biochemical.

Substrate in data set [2]: Nc1ncnc2c1ncn2[C@@H]1O[C@H](COP(=O)(O)OP(=O)(O)OP(=O)(O)O)[C@@H](O)[C@H]1O
As to the kind of experiment: purified protein. Conditions: no delphinidin, arginine 10 mM, 1.5 mM MgCl2, Tris-HCl pH 8.2.

Substrate in data set [3]: N=C(N)NCCC[C@H](N)C(=O)O
Briefly: purified protein. As to conditions: no delphinidin, ATP 1.5 mM, 1.5 mM MgCl2, Tris-HCl pH 8.2.

The term Ki denotes the equilibrium dissociation constant of an inhibitor or competing ligand from its target. For orientation: Km means the substrate concentration at which the rate is half of its maximum.

With `Oc1cc(O)c2cc(O)c(-c3cc(O)c(O)c(O)c3)[o+]c2c1` [delphinidin], in data set [1], the Ki came out at 1320 nM.

B1: TcAK (arginine kinase from Trypanosoma cruzi) (Trypanosoma cruzi) (protein)
chain: T1 sequence (O96507 1-357)
Consider B1, for which the Km in “purified protein [2]” is 200 ± 330 µM; in the data set “purified protein [3]”, 810 ± 330 µM.

The values are drawn from doi:10.1101/2020.06.23.167452v1 (biorxiv, 2020).
